Measured values: paper PMC6191146, “Positive and negative regulation of transferred nif genes mediated by indigenous GlnR in Gram-positive Paenibacillus polymyxa”

Experiments:
[1] = target: His6-tagged GlnR of Paenibacillus polymyxa WLY78 (Paenibacillus polymyxa WLY78); test: SEC; Superdex 200 10/300, 50 mM Tris-HCl pH 7.4, 300 mM NaCl; His6-GlnR at 2 mg/ml; dimer to monomers, broad peak with two maxima
[2] = target: T1, GlnR (Paenibacillus polymyxa WLY78, UniProt A0A074LG55 1-137); test: EMSA; GlnR alone; EMSA: 20 mM HEPES pH 7.6, 1 mM EDTA, 10 mM (NH4)2SO4, 1 mM DTT, 0.2% Tween 20, 30 mM KCl, 1 ug poly[d(A-T)], 0.3 nM probe, 25 C; SPR: 10 mM HEPES pH 7.4, 300 mM NaCl, 3 mM MgCl2, 0.2 mM EDTA, 0.005% Tween-20, 25 C; settings: protein: recombinant; tags: N-terminal His6 (pET-28b); chain copies: 2; label: DIG 3' end; blunt
T1 sequence: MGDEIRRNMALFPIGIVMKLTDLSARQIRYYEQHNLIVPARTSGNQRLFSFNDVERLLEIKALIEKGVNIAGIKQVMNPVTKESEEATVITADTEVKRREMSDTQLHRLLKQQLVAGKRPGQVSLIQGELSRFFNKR

[3] = target: T1, GlnR; test: SPR; GlnR alone; EMSA: 20 mM HEPES pH 7.6, 1 mM EDTA, 10 mM (NH4)2SO4, 1 mM DTT, 0.2% Tween 20, 30 mM KCl, 1 ug poly[d(A-T)], 0.3 nM probe, 25 C; SPR: 10 mM HEPES pH 7.4, 300 mM NaCl, 3 mM MgCl2, 0.2 mM EDTA, 0.005% Tween-20, 25 C; settings: protein: recombinant, tags: N-terminal His6 (pET-28b), chain copies: 2, label: 5' biotin on capture linker S7, 39 bp duplex
[4] = target: T1, GlnR; test: SPR; GlnR alone; fast dissociation; EMSA: 20 mM HEPES pH 7.6, 1 mM EDTA, 10 mM (NH4)2SO4, 1 mM DTT, 0.2% Tween 20, 30 mM KCl, 1 ug poly[d(A-T)], 0.3 nM probe, 25 C; SPR: 10 mM HEPES pH 7.4, 300 mM NaCl, 3 mM MgCl2, 0.2 mM EDTA, 0.005% Tween-20, 25 C; settings: protein: recombinant; tags: N-terminal His6 (pET-28b); chain copies: 2; label: 5' biotin on capture linker S7; 39 bp duplex; 3' overhang 20 nt of BS1R paired to the capture linker
[5] = target: T1, GlnR; test: SPR; GlnR alone; slow dissociation; EMSA: 20 mM HEPES pH 7.6, 1 mM EDTA, 10 mM (NH4)2SO4, 1 mM DTT, 0.2% Tween 20, 30 mM KCl, 1 ug poly[d(A-T)], 0.3 nM probe, 25 C; SPR: 10 mM HEPES pH 7.4, 300 mM NaCl, 3 mM MgCl2, 0.2 mM EDTA, 0.005% Tween-20, 25 C; settings: protein: recombinant; tags: N-terminal His6 (pET-28b); chain copies: 2; label: 5' biotin on capture linker S7; 39 bp duplex; 3' overhang 20 nt of BS2R paired to the capture linker

With “His6-tagged GlnR of Paenibacillus polymyxa WLY78 (natural protein)” the stoichiometry N [1] was 2.

B1: EMSA probe mutated site II (ATAACG to ATCGAT) (dsDNA)
DNA 1: AGACAAAAACAGAGATTTATGTAAGGGAATAATCGATAGAGAGGAGGGAATGA
DNA 2: TCATTCCCTCCTCTCTATCGATTATTCCCTTACATAAATCTCTGTTTTTGTCT
B1: no binding [2].

B2: EMSA probe mutated site I (TGACGT to GGTACC) (dsDNA)
DNA 1: ACCGCGCACATGTAAAGTGTACGATATATTACTGGTACCAAAATTTGACACATATGTGA
DNA 2: TCACATATGTGTCAAATTTTGGTACCAGTAATATATCGTACACTTTACATGTGCGCGGT
B2: no binding [2].

B3: SPR oligo site I (BS1F/BS1R on capture linker) (dsDNA)
DNA 1: GTAAAGTGTACGATATATTACTTGACGTAAAATTTGACA
DNA 2: TGTCAAATTTTACGTCAAGTAATATATCGTACACTTTACCCTACCCTACGTCCTCCTGC
DNA 3: GCAGGAGGACGTAGGGTAGG
For B3, the Ka ([3]; 3' overhang 20 nt of BS1R paired to the capture linker) was 1.09e+06 M-1 (unit not printed in text) and the Kd [4] was 9.16e-07 M (unit not printed in text).

B4: SPR oligo site II (BS2F/BS2R on capture linker) (dsDNA)
DNA 1: AACAGAGATTTATGTAAGGGAATATAACGTAGAGAGGAG
DNA 2: CTCCTCTCTACGTTATATTCCCTTACATAAATCTCTGTTCCTACCCTACGTCCTCCTGC
DNA 3: GCAGGAGGACGTAGGGTAGG
For B4, the Ka ([3]; 3' overhang 20 nt of BS2R paired to the capture linker) was 1.86e+07 M-1 (unit not printed in text) and the Kd [5] was 5.37e-08 M (unit not printed in text).
